B1: FBF1 (parent)
chain: YQRPQDSEDMWGDEDFTFGAYQPT
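Further: lentivirally expressed fusions sorted by FACS into six bins by GFP to DsRed ratio, PSI derived from sequencing read proportions per bin multiplied by bin number.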

Variants of B1 are the subject of the data set. Briefly: protein stability index of a GFP-peptide fusion (GPS, HEK-293T) (PSI 1-6); higher = more stable. The following applies: c terminus: a fixed tail appended.
For the variant YQRPLDSEDMWGDEDFTFGAYQPT [Q5L], the protein stability index was determined as 2.09.
Under YQRPDDSEDMWGDEDFTFGAYQPT [Q5D] stands 3.79; under YQRPCDSEDMWGDEDFTFGAYQPT [Q5C], 2.26.
In the case of YQRPKDSEDMWGDEDFTFGAYQPT [Q5K], the protein stability index was 2.01.
Under YQRPNDSEDMWGDEDFTFGAYQPT [Q5N] stands 3.03; under YQRPWDSEDMWGDEDFTFGAYQPT [Q5W], 2.03; under YQRPIDSEDMWGDEDFTFGAYQPT [Q5I], 2.26.
Under YQRPTDSEDMWGDEDFTFGAYQPT [Q5T] stands 3.18.
Under YQRPEDSEDMWGDEDFTFGAYQPT [Q5E] stands 3.76; under YQRPVDSEDMWGDEDFTFGAYQPT [Q5V], 2.56; under YQRPYDSEDMWGDEDFTFGAYQPT [Q5Y], 2.57.
Turning to YQRPMDSEDMWGDEDFTFGAYQPT [Q5M], the protein stability index is 2.44.
Under YQRPGDSEDMWGDEDFTFGAYQPT [Q5G] stands 2.99; under YQRPPDSEDMWGDEDFTFGAYQPT [Q5P], 2.52.
Take YQRPADSEDMWGDEDFTFGAYQPT [Q5A]: the protein stability index is 2.49.
Under YQRPRDSEDMWGDEDFTFGAYQPT [Q5R] stands 2.16; under YQRPFDSEDMWGDEDFTFGAYQPT [Q5F], 2.64.
The result for YQRPHDSEDMWGDEDFTFGAYQPT [Q5H] reads 2.44; that for YQRPSDSEDMWGDEDFTFGAYQPT [Q5S], 2.98; that for YQRPQDSEDCWGDEDFTFGAYQPT [M10C], 3.23.
Under YQRPQDSEDEWGDEDFTFGAYQPT [M10E] stands 4.53.
Consider YQRPQDSEDFWGDEDFTFGAYQPT [M10F], for which the protein stability index amounted to 1.86.
Under YQRPQDSEDLWGDEDFTFGAYQPT [M10L] stands 2.25; under YQRPQDSEDNWGDEDFTFGAYQPT [M10N], 4.06; under YQRPQDSEDQWGDEDFTFGAYQPT [M10Q], 3.71.
Under YQRPQDSEDAWGDEDFTFGAYQPT [M10A] stands 4.18; under YQRPQDSEDVWGDEDFTFGAYQPT [M10V], 2.75.
The result for YQRPQDSEDPWGDEDFTFGAYQPT [M10P] reads 3.34; that for YQRPQDSEDKWGDEDFTFGAYQPT [M10K], 3.72; that for YQRPQDSEDSWGDEDFTFGAYQPT [M10S], 3.5.
On to YQRPQDSEDRWGDEDFTFGAYQPT [M10R], for which the protein stability index is 3.66.
Under YQRPQDSEDHWGDEDFTFGAYQPT [M10H] stands 3.47.
Under YQRPQDSEDDWGDEDFTFGAYQPT [M10D] stands 4.06; under YQRPQDSEDTWGDEDFTFGAYQPT [M10T], 3.73.
The result for YQRPQDSEDGWGDEDFTFGAYQPT [M10G] reads 3.96.
Take YQRPQDSEDIWGDEDFTFGAYQPT [M10I]: the protein stability index stood at 2.39.
Under YQRPQDMEDMWGDEDFTFGAYQPT [S7M] stands 2.37.
Under YQRPQDQEDMWGDEDFTFGAYQPT [S7Q] stands 2.9; under YQRPQDPEDMWGDEDFTFGAYQPT [S7P], 3.13; under YQRPQDYEDMWGDEDFTFGAYQPT [S7Y], 1.74.
Under YQRPQDVEDMWGDEDFTFGAYQPT [S7V] stands 2.82.
Consider YQRPQDHEDMWGDEDFTFGAYQPT [S7H], for which the protein stability index turned out to be 2.58.
The result for YQRPQDAEDMWGDEDFTFGAYQPT [S7A] reads 2.68; that for YQRPQDFEDMWGDEDFTFGAYQPT [S7F], 2.41.
For YQRPQDLEDMWGDEDFTFGAYQPT [S7L], the protein stability index was found to be 2.87.
The result for YQRPQDCEDMWGDEDFTFGAYQPT [S7C] reads 2.34.
The result for YQRPQDGEDMWGDEDFTFGAYQPT [S7G] reads 2.47; that for YQRPQDIEDMWGDEDFTFGAYQPT [S7I], 2.99.
The result for YQRPQDTEDMWGDEDFTFGAYQPT [S7T] reads 2.35; that for YQRPQDNEDMWGDEDFTFGAYQPT [S7N], 3.2.
As for YQRPQDKEDMWGDEDFTFGAYQPT [S7K], the protein stability index came to 3.01.
The result for YQRPQDEEDMWGDEDFTFGAYQPT [S7E] reads 3.29; that for YQRPQDREDMWGDEDFTFGAYQPT [S7R], 2.71.
Under YQRPQDWEDMWGDEDFTFGAYQPT [S7W] stands 1.73; under YQRPQDDEDMWGDEDFTFGAYQPT [S7D], 3.68.
Under YQRPQDSECMWGDEDFTFGAYQPT [D9C] stands 1.55; under YQRPQDSEGMWGDEDFTFGAYQPT [D9G], 2.47; under YQRPQDSEPMWGDEDFTFGAYQPT [D9P], 2.02.
With YQRPQDSESMWGDEDFTFGAYQPT [D9S], the protein stability index turned out to be 2.11.
Under YQRPQDSEMMWGDEDFTFGAYQPT [D9M] stands 1.55; under YQRPQDSEEMWGDEDFTFGAYQPT [D9E], 3.21; under YQRPQDSEIMWGDEDFTFGAYQPT [D9I], 2.13.
Under YQRPQDSEKMWGDEDFTFGAYQPT [D9K] stands 2.01; under YQRPQDSENMWGDEDFTFGAYQPT [D9N], 2.48.
The result for YQRPQDSEYMWGDEDFTFGAYQPT [D9Y] reads 1.87.
Turning to YQRPQDSEVMWGDEDFTFGAYQPT [D9V], the protein stability index stood at 1.66.
Under YQRPQDSEHMWGDEDFTFGAYQPT [D9H] stands 2.03; under YQRPQDSEAMWGDEDFTFGAYQPT [D9A], 2.17; under YQRPQDSELMWGDEDFTFGAYQPT [D9L], 1.44.
Under YQRPQDSEQMWGDEDFTFGAYQPT [D9Q] stands 2.23; under YQRPQDSEFMWGDEDFTFGAYQPT [D9F], 1.92.
The result for YQRPQDSETMWGDEDFTFGAYQPT [D9T] reads 2.59; that for YQRPQDSEWMWGDEDFTFGAYQPT [D9W], 2.01; that for YQRPQDSERMWGDEDFTFGAYQPT [D9R], 2.34.
In the case of TQRPQDSEDMWGDEDFTFGAYQPT [Y1T], the protein stability index is 4.66.
Under IQRPQDSEDMWGDEDFTFGAYQPT [Y1I] stands 3.95; under LQRPQDSEDMWGDEDFTFGAYQPT [Y1L], 3.87.
The result for WQRPQDSEDMWGDEDFTFGAYQPT [Y1W] reads 3.93; that for FQRPQDSEDMWGDEDFTFGAYQPT [Y1F], 2.58; that for RQRPQDSEDMWGDEDFTFGAYQPT [Y1R], 3.94.
The result for QQRPQDSEDMWGDEDFTFGAYQPT [Y1Q] reads 4.23; that for GQRPQDSEDMWGDEDFTFGAYQPT [Y1G], 4.79; that for HQRPQDSEDMWGDEDFTFGAYQPT [Y1H], 4.76.
In the case of CQRPQDSEDMWGDEDFTFGAYQPT [Y1C], the protein stability index turned out to be 3.54.
The result for AQRPQDSEDMWGDEDFTFGAYQPT [Y1A] reads 4.84; that for EQRPQDSEDMWGDEDFTFGAYQPT [Y1E], 4.84; that for DQRPQDSEDMWGDEDFTFGAYQPT [Y1D], 4.87.
On to KQRPQDSEDMWGDEDFTFGAYQPT [Y1K], for which the protein stability index stood at 4.24.
The result for MQRPQDSEDMWGDEDFTFGAYQPT [Y1M] reads 4.6.
The result for PQRPQDSEDMWGDEDFTFGAYQPT [Y1P] reads 4.71; that for VQRPQDSEDMWGDEDFTFGAYQPT [Y1V], 3.92.
SQRPQDSEDMWGDEDFTFGAYQPT [Y1S]: the protein stability index came to 4.52.
Under NQRPQDSEDMWGDEDFTFGAYQPT [Y1N] stands 4.62; under YQHPQDSEDMWGDEDFTFGAYQPT [R3H], 3.49.

Values taken from the supplement of paper PMC10567573.
